Assay [1] concerns the target SARS-CoV-2 receptor binding domain, native (501N) (SARS-CoV-2) (UniProt P0DTC2). Nature of the assay: BLI, RBD immobilised on AR2G biosensor, 1:1 fit. A general note: Biolayer interferometry detects binding as a change in optical thickness at a sensor tip.
The target in assay [2] is SARS-CoV-2 spike receptor binding domain (native RBD) (SARS-CoV-2) (UniProt P0DTC2).

In the case of “REGN10987 as tested by BLI (Fab by the footnote of Table 12)”, in assay [1], the Kd (as a rule, the concentration at which binding is half-saturated) was found to be 3.85 nM. This counts as single-digit nanomolar. In assay [2], REGN10987 (antibody) showed a Kd of 3.85 nM. Regarding AZD1061 (antibody), the Kd in assay [2] stood at 1.04 nM. On the same count and under the same terms, the value for REGN10933 (antibody) was 1.82 nM.

Consider “AZD8895 as tested by BLI (Fab by the footnote of Table 12)”, for which the Kd in assay [1] worked out at 1.49 nM.

AZD8895 (antibody) returned a Kd in assay [2] of 1.49 nM. As to “REGN10933 as tested by BLI (Fab by the footnote of Table 12)”, the Kd in assay [1] came to 1.82 nM. “AZD1061 as tested by BLI (Fab by the footnote of Table 12)” gave a Kd in assay [1] of 1.04 nM.

For the origin of these results see patent publication US20240043507A1.
